Data published in US9618524B2, “Method, composition, isolation and identification of a plaque particle and related biomarker” (Plaxgen Inc., priority 2012, dated 2017).

How the values were obtained:
Experiment in all cases: Mass spectroscopy proteomics, semi-quantitative binding affinity of serum proteins (plaqueproteome, Table 2)
Settings in all cases: higher number = stronger affinity
[1] = target: T1, Abeta-42 plaque particles (Homo sapiens, UniProt P05067)
T1 construct: Abeta 1-42
Method in brief: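 AD patient serum or plasma (50% in PBS) was incubated with Abeta-42 aggregates (30 μg) for 1 h at 37 °C, then stained with Thioflavin S for 30 min. Labeled particles were FACS-sorted, trypsin/Lys-C digested overnight and analyzed by MS/MS. Sequest searched human UniProt; Scaffold/Protein Prophet validated the identifications.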

Tau plaque particles = tested on: Tau plaque particles; design: species or system human
Method in brief: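 Synthetic Tau-74 and Tau-275 peptides (1 mg/mL PBS, 37° C, 2 h) aggregated; 30 μg aggregates incubated with 50% serum/plasma 1 h at 37° C, stained with Thioflavin S, and plaque particles sorted by flow cytometry. Bound proteins trypsin-digested and identified by MS/MS against human UniProt.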

[2] = tested on: Low density cholesterol (Chl small) plaque particles; design: species or system human
Method in brief: (§1)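 Atherosclerotic plasma/serum (50% in PBS) + 30 μg cholesterol aggregates, 1 hr 37° C; FACS gates split low- vs high-density particles. Acetone precipitation, urea/ProteaseMAX, acrylamide alkylation, overnight Trypsin/Lys C at 37° C; Sequest search, Scaffold/Protein Prophet validation.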

[3] = tested on: High Density cholesterol (Chl Large) plaque particles; design: species or system human
Method in brief: as §1

[4] = target: T2, alpha-synuclein plaque particles (Homo sapiens, UniProt P37840)
T2 construct: 140 amino acids polypeptide
Method in brief: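 AD-subject plasma or serum (800 μL of 50%) mixed with 30 μg preformed alpha-synuclein aggregates for 1 h at 37 °C; Thioflavin S-positive particles isolated by flow sorting. After reduction, acrylamide alkylation and overnight tryptic digestion, serum proteins identified by MS/MS with Sequest and Scaffold.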

Molecule | Semi-quantitative analysis of proteins binding to different plaque particles: Abeta-42 [1] | Semi-quantitative analysis of proteins binding to different plaque particles: Tau (Tau plaque particles) | Semi-quantitative analysis of proteins binding to different plaque particles: Chl small [2] | Semi-quantitative analysis of proteins binding to different plaque particles: Chl Large [3] | Semi-quantitative analysis of proteins binding to different plaque particles: Synuclein [4]
Kallistatin (protein) QLHVEHDGESCSNSSHQQILETGEGSPSLKIAPANADFAFRFYYLIASETPGKNIFFSPLSISAAYAMLSLGACSHSRSQILEGLGFNLTELSESDVHRGFQHLLHTLNLPGHGLETRVGSALFLSHNLKFLAKFLNDTMAVYEAKLFHTNFYDTVGTIQLINDHVKKETRGKIVDLVSELKKDVLMVLVNYIYFKALWEKPFISSRTTPKDFYVDENTTVRVPMMLQDQEHHWYLHDRYLPCSVLRMDYKGDATVFFILPNQGKMREIEEVLTPEMLMRWNNLLRKRNFYKKLELHLPKFSISGSYVLDQILPRLGFTDLFSKWADLSGITKQQKLEASKSFHKATLDVDEAGTEAAAATSFAIKFFSAQTNRHILRFNRPFLVVIFSTSTQSVLFLGKVVDPTKP | 0 | 1 | 0 | 1 | 0
Pigment epithelium-derived factor (protein) QNPASPPEEGSPDPDSTGALVEEEDPFFKVPVNKLAAAVSNFGYDLYRVRSSTSPTTNVLLSPLSVATALSALSLGAEQRTESIIHRALYYDLISSPDIHGTYKELLDTVTAPQKNLKSASRIVFEKKLRIKSSFVAPLEKSYGTRPRVLTGNPRLDLQEINNWVQAQMKGKLARSTKEIPDEISILLLGVAHFKGQWVTKFDSRKTSLEDFYLDEERTVRVPMMSDPKAVLRYGLDSDLSCKIAQLPLTGSMSIIFFLPLKVTQNLTLIEESLTSEFIHDIDRELKTVQAVLTVPKLKLSYEGEVTKSLQEMKLQSLFDSPDFSKITGKPIKLTQVEHRAGFEWNEDGAGTTPSPGLQPAHLTFPLDYHLNQPFIFVLRDTDTGALLFIGKILDPRGP | 5 | 4 | 3 | 4 | 4
Corticosteroid-binding globulin (protein) MDPNAAYVNMSNHHRGLASANVDFAFSLYKHLVALSPKKNIFISPVSISMALAMLSLGTCGHTRAQLLQGLGFNLTERSETEIHQGFQHLHQLFAKSDTSLEMTMGNALFLDGSLELLESFSADIKHYYESEVLAMNFQDWATASRQINSYVKNKTQGKIVDLFSGLDSPAILVLVNYIFFKGTWTQPFDLASTREENFYVDETTVVKVPMMLQSSTISYLHDSELPCQLVQMNYVGNGTVFFILPDKGKMNTVIAALSRDTINRWSAGLTSSQVDLYIPKVTISGVYDLGDVLEEMGIADLFTNQANFSRITQDAQLKSSKVVHKAVLQLNEEGVDTAGSTGVTLNLTSKPIILRFNQPFIIMIFDHFTWSSLFLARVMNPV | 0 | 1 | 3 | 2 | 1
